We go through two molecules from US20240034793A1 (Bristol-Myers Squibb, published 2024).

Assay [1] has as its target human PD-L1 (hPD-L1), Programmed Death Ligand-1, cell surface expressed (human) (UniProt Q9NZQ7). Kind of assay: IHC histoscore (0-300), FFPE Mel sample T980744.
The target is the same in assay [2]. The assay can be described thus: IHC histoscore (0-300), FFPE NSCLC sample 1080790.
Assay [3] has the same target. Kind of assay: IHC histoscore (0-300), FFPE Mel sample T030668.
Assay [4] shares this target. Kind of assay: IHC histoscore (0-300), FFPE NSCLC sample 1080766B.
Assay [5] has the same target. The assay can be described thus: IHC histoscore (0-300), FFPE RCC sample 1164619B.
The target is the same in assay [6]. Kind of assay: IHC histoscore (0-300), FFPE Mel sample 1168657B.
For assay [7] the target is unchanged. Kind of assay: IHC histoscore (0-300), FFPE RCC sample 1167809B.
The target is the same in assay [8]. Kind of assay: IHC histoscore (0-300), FFPE NSCLC sample 1080993B.
Assay [9] shares this target. The assay can be described thus: IHC histoscore (0-300), FFPE NSCLC sample 1080754B.
Assay [10] deals with T1, human PD-L1 (hPD-L1), Programmed Death Ligand-1, cell surface expressed (human, UniProt Q9NZQ7 19-290).
T1 construct: whole, on cells; In the IHC assays the cells and tissues were formalin-fixed and paraffin-embedded (FFPE); also called membranous PD-L1
T1 sequence (Q9NZQ7 19-290): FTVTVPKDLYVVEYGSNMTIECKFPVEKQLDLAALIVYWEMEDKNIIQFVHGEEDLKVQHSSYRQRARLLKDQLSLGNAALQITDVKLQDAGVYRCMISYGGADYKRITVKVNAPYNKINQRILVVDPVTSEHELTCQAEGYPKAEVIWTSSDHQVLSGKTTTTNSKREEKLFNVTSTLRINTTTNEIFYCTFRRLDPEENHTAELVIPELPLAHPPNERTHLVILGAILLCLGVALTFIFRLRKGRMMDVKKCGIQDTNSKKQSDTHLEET
Kind of assay: competition flow cytometry on ES-2 cells: unlabelled mAb titrated, then biotin-12A4 at 0.4 ug/ml, streptavidin-PE. On the procedure:
Anti-PD-L1 HuMAbs 5F8, 12B7, 3G10, 1B12, 13G4, 10H10, 10A5 and 12A4, and a human IgG1 (huIgG1) isotype control Ab were serially diluted from 10 μg/ml and incubated with hPD-L1-expressing ES-2 ovarian carcinoma cells for 20 minutes at 4° C. Without washing, biotinylated-12A4 Ab was added to a final concentration of 0.4 μg/ml for an additional 20 minutes at 4° C.

human PD-L1 (hPD-L1), Programmed Death Ligand-1, cell surface expressed (human), sequence (Q9NZQ7 19-290): as above

“murine anti-human PD-L1 mAb 5H1 (Dong et al., 2002) (antibody)”: the Histoscore Average is 98 in [1]; 40 in assay [2]; 98 in assay [3]; 103 in assay [4]; 4 in assay [5]; 0 in assay [6]. Besides, the Histoscore Average came out at 108 in assay [7], 12 in assay [8] and 245 in assay [9].

B1: anti-PD-L1 HuMAb 3G10 (antibody, V domains shown)
VH: QVQLVQSGAEVKKPGASVKVSCKASGYTFTDYGFSWVRQAPGQGLEWMGWITAYNGNTNYAQKLQGRVTMTTDTSTSTVYMELRSLRSDDTAVYYCARDYFYGMDVWGQGTTVTVSS
VL: EIVLTQSPATLSLSPGERATLSCRASQSVSSYLVWYQQKPGQAPRLLIYDASNRATGIPARFSGSGSGTDFTLTISSLEPEDFAVYYCQQRSNWPRTFGQGTKVEIK
notes: Human mAb; used unconjugated and FITC-conjugated
Take B1: the “IC50 (read off the curve)” value in assay [10] was roughly 1 nM.
